Data from publication PMC11306496, “Myosin Va-dependent Transport of NMDA Receptors in Hippocampal Neurons” (Neuroscience Bulletin, 2024).

Molecular target: T1, myosin Va (rat (endogenous in hippocampus), UniProt Q9QYF3 1-1828)
T1 construct: myosin Va, rat, endogenous in hippocampus; also called MyoVa; source: endogenous, rat hippocampal homogenate
Assay: co-IP; total rat hippocampal lysates with primary antibody and Protein A/G agarose, 4°C; buffer pH 7.4, 0.05 mol/L HEPES, 0.15 mol/L NaCl, 0.5% NP-40, 1% Triton X-100; non-immune IgG as control; slices untreated or treated with PMA (0.5 umol/L, 10 min) and/or AIP (1 umol/L)
Settings: partners not purified

T1 sequence (Q9QYF3 whole entry): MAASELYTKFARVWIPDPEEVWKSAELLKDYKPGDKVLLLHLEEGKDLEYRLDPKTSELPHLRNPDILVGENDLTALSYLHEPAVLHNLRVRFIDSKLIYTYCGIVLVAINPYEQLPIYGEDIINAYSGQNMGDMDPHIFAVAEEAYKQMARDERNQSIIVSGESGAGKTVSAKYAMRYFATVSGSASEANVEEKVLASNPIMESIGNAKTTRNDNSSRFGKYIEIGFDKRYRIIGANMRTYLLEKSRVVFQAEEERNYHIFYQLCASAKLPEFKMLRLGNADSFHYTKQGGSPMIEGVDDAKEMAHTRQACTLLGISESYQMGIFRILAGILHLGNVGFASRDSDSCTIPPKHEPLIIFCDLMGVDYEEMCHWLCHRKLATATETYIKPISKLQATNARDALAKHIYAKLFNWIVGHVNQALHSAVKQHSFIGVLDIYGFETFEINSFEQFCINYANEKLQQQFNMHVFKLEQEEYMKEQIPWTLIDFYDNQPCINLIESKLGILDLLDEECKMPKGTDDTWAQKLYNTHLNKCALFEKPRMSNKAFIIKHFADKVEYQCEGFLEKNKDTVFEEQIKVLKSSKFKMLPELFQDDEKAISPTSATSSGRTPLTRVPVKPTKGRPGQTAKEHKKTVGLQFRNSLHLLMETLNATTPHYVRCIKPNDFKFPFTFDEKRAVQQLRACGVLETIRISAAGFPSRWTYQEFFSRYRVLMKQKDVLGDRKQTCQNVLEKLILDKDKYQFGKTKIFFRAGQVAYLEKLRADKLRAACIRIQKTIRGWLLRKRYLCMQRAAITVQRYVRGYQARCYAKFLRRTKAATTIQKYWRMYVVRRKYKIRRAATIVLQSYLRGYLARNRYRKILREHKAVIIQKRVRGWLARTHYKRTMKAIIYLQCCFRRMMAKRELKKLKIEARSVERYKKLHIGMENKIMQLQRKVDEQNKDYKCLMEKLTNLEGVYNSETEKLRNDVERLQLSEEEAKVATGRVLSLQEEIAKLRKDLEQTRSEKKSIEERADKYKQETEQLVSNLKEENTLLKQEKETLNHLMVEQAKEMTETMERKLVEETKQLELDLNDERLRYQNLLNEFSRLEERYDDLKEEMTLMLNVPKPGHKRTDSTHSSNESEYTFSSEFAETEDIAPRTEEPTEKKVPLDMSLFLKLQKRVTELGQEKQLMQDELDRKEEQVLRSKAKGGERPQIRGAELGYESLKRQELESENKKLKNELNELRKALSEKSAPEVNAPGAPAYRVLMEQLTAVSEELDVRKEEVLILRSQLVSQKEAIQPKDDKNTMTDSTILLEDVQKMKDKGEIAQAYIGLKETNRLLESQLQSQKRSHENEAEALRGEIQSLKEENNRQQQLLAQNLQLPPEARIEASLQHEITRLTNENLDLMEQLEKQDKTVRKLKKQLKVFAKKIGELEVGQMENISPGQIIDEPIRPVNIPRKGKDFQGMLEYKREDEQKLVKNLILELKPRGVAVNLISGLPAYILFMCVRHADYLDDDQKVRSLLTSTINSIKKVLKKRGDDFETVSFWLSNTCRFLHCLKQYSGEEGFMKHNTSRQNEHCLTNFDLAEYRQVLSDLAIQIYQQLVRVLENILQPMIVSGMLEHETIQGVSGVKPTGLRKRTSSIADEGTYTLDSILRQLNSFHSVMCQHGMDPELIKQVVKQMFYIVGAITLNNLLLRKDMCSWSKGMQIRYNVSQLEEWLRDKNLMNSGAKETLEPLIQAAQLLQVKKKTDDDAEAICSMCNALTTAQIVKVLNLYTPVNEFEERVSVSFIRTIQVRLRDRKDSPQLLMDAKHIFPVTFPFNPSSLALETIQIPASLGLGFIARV

co-IP signal with PMA, normalised to control (IP with anti-MyoVa): 1.59 fold of control
B1: NMDA receptor subunit GluN2A (receptor)
chain: not shown
notes: NMDA receptor subunit GluN2A, rat, endogenous in hippocampus; source: endogenous, rat hippocampal homogenate (slices or cultured hippocampal neurons)
